According to patent US8975044B2, “Polynucleotides encoding for frizzled-binding agents and uses thereof” (OncoMed Pharmaceuticals, Inc., priority 2008, dated 2015):
Entries after “also recorded” stand apart in the source; their conditions may differ.

Assays:
Wnt signaling = assay: Inhibition of Wnt3a-induced Super Top Flash reporter activity in STF-293 cells; format: cell-based, human; conditions: for IC50: Wnt3a-conditioned medium, 20-0.0003 μg/ml, triplicate
Procedure: STF cells are Human Embryonic Kidney (HEK)-293 cells stably transfected with the Super Top Flash (STF) reporter cassette in which the expression of the Luciferase (Luc) reporter gene is regulated by multiple copies of the TCF binding site upstream of a minimal promoter. A low basal Luc expression can be induced 30-60 fold in response to Wnt3a, providing a large window to assess the inhibitory activity of the anti-Fzd Abs.
To assess the mAbs, STF-293 cells were grown in DMEM-10% FBS. On day 1, 10,000 cells were plated per well in 96-well Optical Bottom White plates (Nunc #165306). The cells were incubated O.N. at 37° C. and 5% CO2. On day 2, the Abs to be tested were diluted to a final concentration of […] using culture medium. Seven 5-fold serial dilutions were performed. The STF-293 cells culture medium was replaced with a mixture containing 50 μA Ab dilution, 25 μA Wnt3a-conditioned medium from Wnt3a stable L-cells and 25 μA DMEM-10% FBS. For each Ab, the final concentrations tested were 20, 4, 0.8, 0.16, 0.03, 0.006, 0.0013, 0.0003 μg/ml. Each Ab concentration was tested in triplicate. A human anti-hapten Ab, LZ1, was used as negative control Ab. A non-Wnt3a-conditioned medium from parental L-cells was used as negative control inducer. The plates were returned to the incubator. Luciferase activity was measured on day 3, using Promega Steady Glo kit (VWR #PAE2550-A) according to the manufacturer specifications. The results were expressed in photons per sec. GraphPad Prism software was used to graph and analyze the data. Luciferase activities were plotted as a function of Ab concentration to establish dose-response curves. A non-linear regression was applied to the numbers to fit the curve and calculate IC50s.

Wnt signaling pathway = assay: 8xTCF luciferase reporter assay in STF293 cells with Wnt3A-conditioned medium; format: cell-based, human; conditions: range of antibody concentrations, 18 hours
Procedure: STF293 cells were cultured in DMEM supplemented with antibiotics and 10% FCS. The STF293 cells are 293 cells in which the following have been stably integrated: (1) an 8×TCF Luc reporter vector containing […] of the TCF binding site linked to a promoter upstream of a firefly luciferase reporter gene to measure canonical Wnt signaling levels (Gazit et al., 1999, Oncogene 18:5959-66) and (2) a Renilla luciferase reporter (Promega; Madison, Wis.) as an internal control for transfection efficiency. The cells were added to cultures plates. The FZD antibodies to be tested (or no antibodies) were added. The cells were then incubated in the presence or absence of Wnt3A-conditioned medium that had been prepared from L cells that stably express Wnt3a (ATCC CRL-2647) or control conditioned media from L cells not overexpressing Wnt3A (ATCC cell line CRL-2648). After overnight incubation, luciferase levels were measured using a dual luciferase assay kit (Promega; Madison, Wis.) with firefly luciferase activity normalized to Renilla luciferase activity.
The ability of the 18R8 and 18R5 antibodies to inhibit Wnt-induced pathway activation was thus determined. STF293 cells were treated with different concentrations of 18R8 or 18R5 IgG antibodies and Wnt3A-conditioned medium was added. The cells were assayed 18 hours later using the dual luciferase assay kit.

FZD8 [1] = biological target: T1, FZD8 (Homo sapiens, UniProt Q9H461, G66A/L67A); assay: Epitope mapping by FACS on FZD8 Fri domain variants on HEK293 cells; format: binding; conditions: amino acids 66-67 mutated from GL to AA
T1 construct: N-terminus of the Fri domain of FZD8 in turn fused to the transmembrane domain and intracellular domain of CD4 protein; expressed in transfected cells; host or cells: HEK293
T1 sequence (Q9H461 28-158 G66A/L67A): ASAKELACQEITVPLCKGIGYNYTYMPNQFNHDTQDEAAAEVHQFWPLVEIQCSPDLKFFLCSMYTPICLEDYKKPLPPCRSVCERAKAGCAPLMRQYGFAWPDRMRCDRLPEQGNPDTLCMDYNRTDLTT
Procedure: (§1) To identify the FZD epitope recognized by the 18R8 IgG antibody, epitope mapping was performed. Flow cytometry analysis of cell surface expressed FZD was utilized to measure antibody binding. Mammalian expression plasmid vectors comprising a CMV promoter upstream of polynucleotides that encode an N-terminal signal sequence FLAG epitope tag fused to the N-terminus of the Fri domain of FZD8 in turn fused to the transmembrane domain and intracellular domain of CD4 protein were generated by standard recombinant technology. This expression construct allows expression of the FZD8 Fri domain on the cell surface, as well as expression of a FLAG epitope tag to monitor expression. Site-direct mutagenesis was then used to modify selected amino acids within the extracellular domain of FZD. HEK293 cells were co-transfected with expression vectors encoding the FZD and the transfection marker GFP. Forty-eight hours post-transfection, cells were collected in suspension and incubated on ice with anti-FZD antibody or control IgG to detect background antibody binding. The cells were washed and primary antibodies detected with anti-antibody secondary antibodies conjugated to a fluorescent chromophore. Labeled cells were then analyzed by flow cytometry to measure the binding of anti-FZD antibody to cell surface FZD.
(§2) Epitope mapping for the anti-FZD antibody 44R24 was performed in a manner similar to that described above in Example 5 for the antibodies 18R8 and 18R5. The ability of 44R24 to bind to a similar epitope as 18R8 was assessed by flow cytometry using a series of amino acid variants of FZD8 previously shown to disrupt binding of 18R8 (see Example 5 and FIGS. 6 and 7).

FZD8 [2] = biological target: T2, FZD8 (Homo sapiens, UniProt Q9H461, H70A/Q71E); assay: as above; format: binding; conditions: residues 70-71 changed from HQ to AE
T2 construct: N-terminus of the Fri domain of FZD8 in turn fused to the transmembrane domain and intracellular domain of CD4 protein; expressed in transfected cells; host or cells: HEK293
T2 sequence (Q9H461 28-158 H70A/Q71E): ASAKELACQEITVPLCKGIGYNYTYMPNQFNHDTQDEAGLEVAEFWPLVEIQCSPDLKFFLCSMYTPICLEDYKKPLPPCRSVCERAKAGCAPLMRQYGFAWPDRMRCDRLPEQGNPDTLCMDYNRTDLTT
Procedure: as §1, §2

B1: 44R24: anti-FZD5/8 IgG antibody, VH SEQ ID NO:85, VL SEQ ID NO:86; ATCC deposit no. PTA-10311 (antibody, V domains shown)
VH: EVQLVESGGGLVQPGGSLRLSCAASGFTFSSYYITWVRQAPGKGLEWVSTISYSSSNTYYADSVKGRFTISRDNSKNTLYLQMNSLRAEDTAVYYCARSIVFDYWGQGTLVTVSS
VL: DIELTQPPSVSVAPGQTARISCSGDALGNRYVYWYQQKPGQAPVLVIPSGIPERFSGSNSGNTATLTISGTQAEDEADYYCGSWDTRPYPKYVFGGGTKLTVLG
modifications: 44R24 VH; 44R24 VL
notes: ATCC deposit no; PTA-10311
IC50 relative to 18R5's (Wnt signaling): 13 fold | IC50 (Wnt signaling): 34.4 nM

B2: 18R5: human anti-FZD antibody; VH SEQ ID NO:10 (as 18R8), VL SEQ ID NO:14; binds FZD1, 2, 5, 7, 8 (antibody, V domains shown)
VH: EVQLVESGGGLVQPGGSLRLSCAASGFTFSHYTLSWVRQAPGKGLEWVSVISGDGSYTYYADSVKGRFTISSDNSKNTLYLQMNSLRAEDTAVYYCARNFIKYVFANWGQGTLVTVSS
VL: DIELTQPPSVSVAPGQTARISCSGDNIGSFYVHWYQQKPGQAPVLVIYDKSNRPSGIPERFSGSNSGNTATLTISGTQAEDEADYYCQSYANTLSLVFGGGTKLTVLG
modifications: 18R5/18R8 heavy chain variable region (VH); 18R5 light chain variable region (VL)
inhibition of Wnt3A-induced TCF signaling (Wnt signaling pathway): Greater inhibition; also recorded: inhibit Wnt signaling | binding to FZD8 variant (FZD8 [1]): reduced staining | binding to FZD8 variant (FZD8 [2]): reduced staining | IC50 (Wnt signaling): 2.73 nM

B3: 18R8: human anti-FZD antibody from phage display; VH SEQ ID NO:10, VL SEQ ID NO:12; binds FZD1, 2, 5, 7, 8 (antibody, V domains shown)
VH: EVQLVESGGGLVQPGGSLRLSCAASGFTFSHYTLSWVRQAPGKGLEWVSVISGDGSYTYYADSVKGRFTISSDNSKNTLYLQMNSLRAEDTAVYYCARNFIKYVFANWGQGTLVTVSS
VL: DIELTQPPSVSVAPGQTARISCSGDKLGKKYASWYQQKPGQAPVLVIYEKDNRPSGIPERFSGSNSGNTATLTISGTQAEDEADYYCSSFAGNSLEVFGGGTKLTVLG
modifications: 18R5/18R8 heavy chain variable region (VH); 18R8 light chain variable region (VL)
inhibition of Wnt3A-induced TCF signaling (Wnt signaling pathway): inhibit Wnt signaling | binding to FZD8 variant (FZD8 [1]): similarly lost | binding to FZD8 variant (FZD8 [2]): clearly diminished
